Results from the nanobody polyreactivity screen of Harvey et al. (2022).

assay: yeast display, Sf9 membrane polyspecificity reagent, FACS + sequencing; frameworks hold sequencing errors
How it was run: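 Galactose-induced (36–48 hours) yeast carrying a synthetic nanobody display library were exposed to 10% biotinylated, detergent-solubilized Sf9 membrane reagent at 4 °C for 1 hour. FACS followed streptavidin microbead enrichment, using low and high (top ~1%) gates for expression (anti-HA) and reagent binding (streptavidin). Colony PCR, MiSeq 2 × 250 sequencing and CDR-length filtering followed. Labels for polyreactivity reflect the gate of origin.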

Sequence | polyreactivity (PSR sort gate)
QVQLVESGGGLVQAGGSLRLSCAASGSTFGGYAMGWYRLAPGKERELVAAISSSGTSTYYADSVKGRFTISRDNAKNTVYLQMNSLKPEDTAVYYCATDFSFFSRFDYWGQGTQVTVSS | low polyreactivity
QVQLVESGGGLVQAGGSLRLSCAASGSTFGGYAMGWYRQAPGKERELVASISGGTRTNYADSVKGRFTISRDNAKNSVYLQMNSLKPEDTAVYYCAAEVGLPTWYTLPVDDYDYWGQGTQVTVSS | low polyreactivity
QVQLVESGGGLVQAGGSLRLSCAASGSTFGGYAMGWYRQAPGKERELVASISGGTRTNYADSVKGRFTISRDNAKNTVYLQMNSLKPEDTAVYYCAAEVGLPTWYTLPVDDYDYWGQGTQVTVSS | low polyreactivity
QVQLVESGGGLVQAGGSLRLSCAASGSTFGHNAMGWYRQAPGKERELVAAIDSGDGTTYADSVKGRFTISRDNAKNTVYFQMNSLKPEDTAVYYCAATTDRAEDDDNIGGYWGQGTQVTVSS | low polyreactivity
QVQLVESGGGLVQAGGSLRLSCAASGSTFGHYTMGWYRQAPGKERELVAAITYSGGRTYYADSVKGRFTISRDNAKNTVYLQMNSLKPEDTAVYYCNAKSFRILDNFAYRVDYDYWGQGTQVTVSS | low polyreactivity
QVQLVESGGGLVQAGGSLRLSCAASGSTFGINAMGWSRQAPGKERELVAAINSGTRTYYADSVKGRFTISRDNAKNNVYLQMNSLKPEDTAVYYCAARGVVGASGYYYWGQGTQVTVSS | high polyreactivity
QVQLVESGGGLVQAGGSLRLSCAASGSTFGINDMGRYRQAPGKERELVASITRRGGTTYYADSVKGRFTISRDNAKNTVYLHMNSLKPEDTAVYYCNKTYRYGTPLYDYWGQGTQVTVSS | high polyreactivity
QVQLVESGGGLVQAGGSLRLSCAASGSTFGIYAMGWYRPAPGKDREMVAAISSGVDTYYADSVKGRVTISRDNAKNTVDIQMNSLKPEDPAVYYCAADQFQGNSGFEYWGQGTQVTVSS | low polyreactivity
QVQLVESGGGLVQAGGSLRLSCAASGSTFGIYAMGWYRQAPGKERELVAAISSGGSTNYADSVKGRFTISRDNAKNTVYLQMNSLKPEDTAVYYCAVESVYEYGGYVDSAYDYWGQGTQLTVSS | low polyreactivity
QVQLVESGGGLVQAGGSLRLSCAASGSTFGIYAMGWYRQAPGKERELVAAITWRGSSTYYADSVKGRFTISRDNAKNTVYLQMNSLKPEDTAVYYCAAEDTFYEYYSWGQGTQVTVSS | high polyreactivity
QVQLVESGGGLVQAGGSLRLSCAASGSTFGIYAMGWYRQAPGKERELVATITGRGGRTYYADSVKGRFTISRDNAKNTVYLQMNSLKQEDTAVYYCNAAYRGYYRYDYWGQGTQVTVSS | high polyreactivity
QVQLVESGGGLVQAGGSLRLSCAASGSTFGKYAMGWYRPAPGKERELVAAITNGGRTNYADSVKGRFTISRDNAMNTVYLQMNSLKPEDTAVYYCNKARYGTDDYDYWGQGTQVTVSS | low polyreactivity
QVQLVESGGGLVQAGGSLRLSCAASGSTFGKYAMGWYRQAPGKEREFVAAITWSGGRTYYADSVKGRFTISRDNAKNTVYLQMNSLKPEDTAVDYCAALWAYYSRGYYWGQGTQVTVSW | high polyreactivity
QVQLVESGGGLVQAGGSLRLSCAASGSTFGKYAMGWYRQAPGKERELVAAITNGGRTNFADSVKGRFTISRDNAKNTVYLQMNSLKPEDTAVYFCNKARYGTDDYEYWGQGTQVTVSS | low polyreactivity
QVQLVESGGGLVQAGGSLRLSCAASGSTFGLYAMGWYRQAPGKERELVAAIRWSGASTYYADSVKGRFTISRDNAKNTVYLQMNSLKPEDTAVYYCARRALGPRRGIRYDYWGQGTQVTVSS | high polyreactivity
QVQLVESGGGLVQAGGSLRLSCAASGSTFGPNAMGWYRQAPGKERELVATISFRGGTTYYADSVKGRFTISRDNAKNTVYLQMNSLKPEDTAVYYCAVKVGYVRLLYHYYYWGQGTQVTVSS | high polyreactivity

Sequence | polyreactivity (PSR sort gate)
QVQLVESGGGLVQAGGSLRLSCAASGSTFGPNAMGWYRQAPGKERELVATISSGGSTYYADSVKGRFTISRDNAKNTVYLQMNSLKPEDTAVYYCNVLWLRSRRKYDYWGHGTQVTVSS | low polyreactivity
QVQLVESGGGLVQAGGSLRLSCAASGSTFGPYAMGWYRPAPGKEMELVATITRNGGSTYYADSVKGRFTISRDNAKNTVYLQMNSLKPEDTAVYYCNAEGRWSSFTQRMDYWGQGTQVTVSS | low polyreactivity
QVQLVESGGGLVQAGGSLRLSCAASGSTFGPYAMGWYRPAPGKERELVAAIRSGGSTYYADSVKGRFTISRDNAKNTVYLQMNSLKPEDTAVYYCAAGGHHSYTYWIYYYWGQGTQVTVSS | low polyreactivity
QVQLVESGGGLVQAGGSLRLSCAASGSTFGPYAMGWYRQAPGKEREFVAGISKSTSSTYYADSVKGRFTISRDNAKNTVYLQMNSLKPEDTAVYYCAAQGGRNRGYRYYWGQGTQVTVSS | high polyreactivity
QVQLVESGGGLVQAGGSLRLSCAASGSTFGPYAMGWYRQAPGKERELVATITRNGGSTYYADSVKGRFTISRDNAKNTVYLQMNSLKPEDTAVYYCNAEGRWSSFTQRMDYWGQGTQVTVSS | low polyreactivity
QVQLVESGGGLVQAGGSLRLSCAASGSTFGPYAMGWYRQAPGQERELVATITRNGGSTYYADSVKGRFTISRDNAKNTVYLQMNSLKPEDTAVYYCAARLYYEIYDYGAVRIGYDYWGQGTQVTVSS | low polyreactivity
QVQLVESGGGLVQAGGSLRLSCAASGSTFGPYTMGWKRPAPGKERELVATISSGGSTYYADSVKGRFTISRDNAKNTVYLQLNCLKPEDTAVYSCAKDFWYRSYDYWGQGTQVTLSS | low polyreactivity
QVQLVESGGGLVQAGGSLRLSCAASGSTFGPYVMGRYRQAPGKDRELVAAITRSGGRTYYADSVKGRFTISRDNAKNTVYLQMNSLKPEDTAVYYCAAPPSEATSQRYKYNYWGQGTQVTVSS | high polyreactivity
QVQLVESGGGLVQAGGSLRLSCAASGSTFGPYVMGWYRQAPGKERELVATITSDDSTNYADSVKGRFTISRDNAKNTVYLQMNSLKPEDTAVYYCAVERDYWTKASYYWGQGTQVTVSS | low polyreactivity
QVQLVESGGGLVQAGGSLRLSCAASGSTFGQYVMAWYRQAPGKERELVAAISSGDSTNYADSVKGRFTISRDNAKNTVYLQMNSLKPEDTAVYYCAAARRPTYWPVYPYFGYEYWGQGTQVTVSS | low polyreactivity
QVQLVESGGGLVQAGGSLRLSCAASGSTFGRNAMGWYRQAPGKERELVAAISYSGGSTYYADSVKGRFTISRDNAKNTVYLQMNSLKPEDTAVYYCNTVPKPWYSWKYAYDYWGQGTQVTVSS | high polyreactivity
QVQLVESGGGLVQAGGSLRLSCAASGSTFGRNAMGWYRQAPGKERELVAASNWSDGSTHYADSVKGRFTISRDNAKNTVYLQMNSLKPEDTAVYYCAADAWSWPVDYNYWGQGTQVTVSS | low polyreactivity
QVQLVESGGGLVQAGGSLRLSCAASGSTFGRNAMGWYRQAPGKERELVASISSGGSTYYADSVKGRFTISRDNAKNTVYLQMNSLKPEDTAVYYCARRAYQNWYNYWGQGTQVTVSS | high polyreactivity
QVQLVESGGGLVQAGGSLRLSCAASGSTFGRYAMGCYIQAPGKERELVAAITRSGGRTYYADSVKGRFTISRDNAKNTVYLQMNSLIPEDTAVYYCAARSRRRFDWGQGTQVTVSS | high polyreactivity
QVQLVESGGGLVQAGGSLRLSCAASGSTFGRYAMGWYGQAPGKERELVAAISASGASTYYADSVKGRFTISRDNAKNTVYLQMNSLKPEDTAVYYSNAPYYFAGKPWGSWRYGYWGQGTQVTVSS | low polyreactivity
